Laboratory results published in patent publication US8101714B2, “Teleost derived antimicrobial polypeptides” (The University of Georgia Research Foundation, Inc., priority 2004, dated 2012).

What was measured:
[1] = tested on: E. coli, DH5alpha strain; assay: Anti-microbial modified broth dilution assay with recombinant NCAMP-1; type: cell-based; conditions: for MIC50 (MIC for 50% bactericidal activity): 2 h incubation, colony counts
Procedure: (§1) The recombinant protein was examined for anti-microbial activity by a modified broth dilution assay. NCAMP-1 activity was tested against Gram positive (Micrococcus luteus, Streptococcus iniae) and Gram negative (E. coli, DH5alpha strain) microorganisms. S. iniae was grown and tested for susceptibility in Todd-Hewitt broth (THB) at 30° C. E. coli and M. luteus were grown and tested at 37° C. in Mueller-Hinton broth (MHB). Overnight cultures were diluted into fresh media and grown at the indicated temperature for 3-6 h. Cultures were diluted to 5000 CFUs (colony forming units)/ml in 10 mM sodium phosphate buffer (NAPB), supplemented to 10% wvith either MHB or THB. The relationship between A620 and CFUs was previously determined in our laboratory for each bacteria. Fifty microliters of bacteria (5000 CFUs) were added to an equal volume of NCAMP-1 (or control protein) diluted in 10 mM NAPB to the indicated protein concentration. Assay tubes were incubated at the appropriate temperatures for 2 h with shaking. Colony counts were then determined by plating serial dilutions of test cultures on the appropriate media. Results are expressed as CFUs/ml.

[2] = tested on: Micrococcus luteus; assay: Anti-microbial assay, residual colony counts; type: cell-based; conditions: M. luteus, 37 C, 2 h
Procedure: as §1, with “Fifty microliters of bacteria (5000 CFUs) were added to an equal volume of NCAMP-1 (or control protein) diluted in 10 mM NAPB to the indicated protein concentration. Assay tubes were incubated at the appropriate temperatures for 2 h with shaking.” left out
M. luteus were killed by full length recombinant NCAMP-1. […] After 2 hours, the OD620 was measured. Using a previously determined relationship of OD620 0.1=1.2×10^7 CFUs/ml, bacteria was diluted to 10^5 CFUs/ml in sodium phosphate buffer (pH8) supplemented with 10% with MH broth (assay buffer). […] Serial dilutions of each sample were plated onto MH agar plates and residual colony counts were determined. […]

[3] = tested on: GpC and CpG ODNs; assay: Southwestern (ODN) blot of recombinant NCAMP-1; type: binding; conditions: Southwestern blotting, biotinylated ODNs, FIG. 13B
Procedure: Biotinylated ODNs were used to identify potential. DNA binding proteins in NCC membrane lysate preparations and to evaluate the ODN binding of recombinant NCAMP-1. Membrane lysates were prepared as indicated above. Purified recombinant NCAMP-1 was mixed with SDS-PAGE sample buffer (reducing) prior to electrophoresis. […] Membranes were blocked in Superblock (Pierce, Rockford Ill.) blocking solution with 0.05% Tween-20. ODN's were diluted in Superblock and added to membranes (1 h, room temperature). Membranes were washed (3×) in TBS with 0.5% Tween-20 (TBST). Neutraviden-HRP (Pierce) diluted in Superblock (minimum dilution 1:50000) was added and incubated for 30 min at room temperature. Blots were washed (3×) in TBST and were developed with enhanced chemiluminiscence (SuperSignal® West Pico Pierce, Rockford, Ill.).

[4] = tested on: Streptococcus iniae; assay: Anti-microbial modified broth dilution assay with recombinant NCAMP-1; type: cell-based; conditions: S. iniae
Procedure: as §1

Molecule | MIC50 concentration [1] [µM] | MIC50 (MIC for 50% bactericidal activity) [1] | bactericidal activity [2] | ODN binding of recombinant protein [3] | bactericidal activity ([1]; FIG. 17) | bactericidal activity ([4]; FIG. 17) | MIC50 (MIC for 50% bactericidal activity) ([4]; 2 h incubation, colony counts) [µM]
NCAMP-d2: truncated recombinant NCAMP-1, aa 1-60 of SEQ ID NO:3 (MSAQAEETAPEAAAPVQPSQPAAKKKGPASKAKPASAEKKNKKKKGKGPGKYSQLVINAI; listed as Ictalurus punctatus) | 1.0 | 1.0 µM | – | – | – | – | –
NCAMP-d1: truncated recombinant NCAMP-1, aa 1-118 of SEQ ID NO:3 (protein, listed as Ictalurus punctatus) MSAQAEETAPEAAAPVQPSQPAAKKKGPASKAKPASAEKKNKKKKGKGPGKYSQLVINAIQTLGERNGSSLFKIYNEAKKVNWFDQQHGRVYLRYSIRALLQNDTLVQVKGLGANGSF | 0.63 | 0.63 µM | – | – | – | – | –
NCAMP-1: NCC cationic antimicrobial protein-1 from channel catfish, 203 amino acids, SEQ ID NO:3; recombinant His-tagged form expressed in E. coli (protein, listed as Ictalurus punctatus, His tag, recombinant His-tagged form expressed in E. coli) MSAQAEETAPEAAAPVQPSQPAAKKKGPASKAKPASAEKKNKKKKGKGPGKYSQLVINAIQTLGERNGSSLFKIYNEAKKVNWFDQQHGRVYLRYSIRALLQNDTLVQVKGLGANGSFKLNKKKFIPRTKKSSVKPRKTAKPTKKPAKKAAKKKKRVSGVKKATPPPEKTSKPKKADKSPAVSAKKASKPKKAKQTKKTAKKT | – | 0.43 uM (SEQ ID NO: 3) | killed | bind to GpC (SEQ ID NO:11) and CpG (SEQ ID NO:7) | killed | killed | 0.86
